In paper PMC6238537 (Life Science Alliance, 2018):

B1: recombinant integrin αvβ3 (receptor, human)
chain 1: FNLDVDSPAEYSGPEGSYFGFAVDFFVPSASSRMFLLVGAPKANTTQPGIVEGGQVLKCDWSSTRRCQPIEFDATGNRDYAKDDPLEFKSHQWFGASVRSKQDKILACAPLYHWRTEMKQEREPVGTCFLQDGTKTVEYAPCRSQDIDADGQGFCQGGFSIDFTKADRVLLGGPGSFYWQGQLISDQVAEIVSKYDPNVYSIKYNNQLATRTAQAIFDDSYLGYSVAVGDFNGDGIDDFVSGVPRAARTLGMVYIYDGKNMSSLYNFTGEQMAAYFGFSVAATDINGDDYADVFIGAPLFMDRGSDGKLQEVGQVSVSLQRASGDFQTTKLNGFEVFARFGSAIAPLGDLDQDGFNDIAIAAPYGGEDKKGIVYIFNGRSTGLNAVPSQILEGQWAARSMPPSFGYSMKGATDIDKNGYPDLIVGAFGVDRAILYRARPVITVNAGLEVYPSILNQDNKTCSLPGTALKVSCFNVRFCLKADGKGVLPRKLNFQVELLLDKLKQKGAIRRALFLYSRSPSHSKNMTISRGGLMQCEELIAYLRDESEFRDKLTPITIFMEYRLDYRTAADTTGLQPILNQFTPANISRQAHILLDCGEDNVCKPKLEVSVDSDQKKIYIGDDNPLTLIVKAQNQGEGAYEAELIVSIPLQADFIGVVRNNEALARLSCAFKTENQTRQVVCDLGNPMKAGTQLLAGLRFSVHQQSEMDTSVKFDLQIQSSNLFDKVSPVVSHKVDLAVLAAVEIRGVSSPDHVFLPIPNWEHKENPETEEDVGPVVQHIYELRNNGPSSFSKAMLHLQWPYKYNNNTLLYILHYDIDGPMNCTSDMEINPLRIKISSLQTTEKNDTVAGQGERDHLITKRDLALSEGDIHTLGCGVAQCLKIVCQVGRLDRGKSAILYVKSLLWTETFMNKENQNHSYSLKSSASFNVIEFPYKNLPIEDITNSTLVTTNVTWGIQPAPMPV
chain 2: GPNICTTRGVSSCQQCLAVSPMCAWCSDEALPLGSPRCDLKENLLKDNCAPESIEFPVSEARVLEDRPLSDKGSGDSSQVTQVSPQRIALRLRPDDSKNFSIQVRQVEDYPVDIYYLMDLSYSMKDDLWSIQNLGTKLATQMRKLTSNLRIGFGAFVDKPVSPYMYISPPEALENPCYDMKTTCLPMFGYKHVLTLTDQVTRFNEEVKKQSVSRNRDAPEGGFDAIMQATVCDEKIGWRNDASHLLVFTTDAKTHIALDGRLAGIVQPNDGQCHVGSDNHYSASTTMDYPSLGLMTEKLSQKNINLIFAVTENVVNLYQNYSELIPGTTVGVLSMDSSNVLQLIVDAYGKIRSKVELEVRDLPEELSLSFNATCLNNEVIPGLKSCMGLKIGDTVSFSIEAKVRGCPQEKEKSFTIKPVGFKDSLIVQVTFDCDCACQAQAEPNSHRCNNGNGTFECGVCRCGPGWLGSQCECSEEDYRPSQQDECSPREGQPVCSQRGECLCGQCVCHSSDFGKITGKYCECDDFSCVRYKGEMCSGHGQCSCGDCLCDSDWTGYYCNCTTRTDTCMSSNGLLCSGRGKCECGSCVCIQPGSYGDTCEKCPTCPDACTFKKECVECKKFDRGALHDENTCNRYCRDEIESVKELKDTGKDAVNCTYKNEDDCVVRFQYYEDSSGKSILYVVEEPECPKGPD
notes: integrin αv subunit, human, extracellular domain; integrin β3 subunit, human, extracellular domain; truncated soluble heterodimer; vectors from Dr. Junichi Takagi (Takagi et al, 2001, 2002a, b); Purification on ANTI-FLAG gel implies a FLAG tag
B2: recombinant integrin αvβ5 (receptor, human)
chain 1: B1 chain 1
chain 2: GLNICTSGSATSCEECLLIHPKCAWCSKEDFGSPRSITSRCDLRANLVKNGCGGEIESPASSFHVLRSLPLSSKGSGSAGWDVIQMTPQEIAVNLRPGDKTTFQLQVRQVEDYPVDLYYLMDLSLSMKDDLDNIRSLGTKLAEEMRKLTSNFRLGFGSFVDKDISPFSYTAPRYQTNPCIGYKLFPNCVPSFGFRHLLPLTDRVDSFNEEVRKQRVSRNRDAPEGGFDAVLQAAVCKEKIGWRKDALHLLVFTTDDVPHIALDGKLGGLVQPHDGQCHLNEANEYTASNQMDYPSLALLGEKLAENNINLIFAVTKNHYMLYKNFTALIPGTTVEILDGDSKNIIQLIINAYNSIRSKVELSVWDQPEDLNLFFTATCQDGVSYPGQRKCEGLKIGDTASFEVSLEARSCPSRHTEHVFALRPVGFRDSLEVGVTYNCTCGCSVGLEPNSARCNGSGTYVCGLCECSPGYLGTRCECQDGENQSVYQNLCREAEGKPLCSGRGDCSCNQCSCFESEFGKIYGPFCECDNFSCARNKGVLCSGHGECHCGECKCHAGYIGDNCNCSTDISTCRGRDGQICSERGHCLCGQCQCTEPGAFGEMCEKCPTCPDACSTKRDCVECLLLHSGKPDNQTCHSLCRDEVITWVDTIVKDDQEAVLCFYKTAKDCVMMFTYVELPSGKSNLTVLREPECGNTPN
notes: integrin αv subunit, human, extracellular domain; integrin β5 subunit, human, extracellular domain; cDNA amplified from RNA of T98G human glioblastoma cells; truncated soluble heterodimer; Purification on ANTI-FLAG gel implies a FLAG tag

Target: T1, recombinant human laminin-511 (human, UniProt O15230 36-3695; P07942 22-1786; P11047 34-1609)
T1 construct: the FLAG tag stands just after the N-terminal signal peptide cleavage site; αβγ heterotrimer; also called LM511; not shown: FLAG, N-terminal, kept; copies: + +
Assay: ELISA; solid-phase binding assay: 96-well plates coated with laminins at 5 nM overnight at 4°C, blocked with 3% BSA; 30 nM integrins for 3 h at room temperature with 1 mM Mn2+; bound integrins detected by biotinylated anti-Velcro pAb and HRP-streptavidin (absorbance at 490 nm)
Conditions: both partners purified

Row | Binder | binding result
1 | B1 | binds
2 | B2 | binds
